Assay results taken from US20250163162A1.
Blank lines part the entries; values can stand above or below the binder they belong to.

Molecular target: T1, IL10Rα/IL2Rγ receptor (human) (UniProt Q13651)
T1 sequence (looked up) 1: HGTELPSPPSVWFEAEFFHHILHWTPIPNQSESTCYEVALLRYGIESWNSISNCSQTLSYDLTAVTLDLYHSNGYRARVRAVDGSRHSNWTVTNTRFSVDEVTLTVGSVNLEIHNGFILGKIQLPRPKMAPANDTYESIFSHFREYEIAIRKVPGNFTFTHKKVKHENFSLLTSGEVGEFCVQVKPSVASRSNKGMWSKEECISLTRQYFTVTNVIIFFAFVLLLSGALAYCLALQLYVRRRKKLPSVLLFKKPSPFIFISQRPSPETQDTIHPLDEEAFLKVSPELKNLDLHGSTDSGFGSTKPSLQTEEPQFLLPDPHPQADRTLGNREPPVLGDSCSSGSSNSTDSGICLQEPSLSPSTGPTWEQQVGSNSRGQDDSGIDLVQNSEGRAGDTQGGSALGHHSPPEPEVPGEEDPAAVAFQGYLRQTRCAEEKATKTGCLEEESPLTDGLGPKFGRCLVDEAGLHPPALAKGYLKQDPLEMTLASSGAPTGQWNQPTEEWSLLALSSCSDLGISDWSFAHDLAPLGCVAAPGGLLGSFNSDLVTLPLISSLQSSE
T1 sequence (looked up) 2: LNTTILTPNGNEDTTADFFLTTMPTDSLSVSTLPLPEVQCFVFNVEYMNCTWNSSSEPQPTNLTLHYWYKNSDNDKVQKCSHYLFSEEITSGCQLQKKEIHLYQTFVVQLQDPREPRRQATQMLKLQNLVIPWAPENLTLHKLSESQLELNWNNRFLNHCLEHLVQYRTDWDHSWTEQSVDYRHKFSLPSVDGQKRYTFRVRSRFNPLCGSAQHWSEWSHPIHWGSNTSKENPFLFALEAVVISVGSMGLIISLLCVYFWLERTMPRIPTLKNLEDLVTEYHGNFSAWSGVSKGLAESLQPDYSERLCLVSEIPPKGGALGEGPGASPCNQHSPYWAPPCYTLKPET
Test: cell-based or functional assay

Granzyme A secretion, CD8 T cells, at 0 µM: 25200 pg/mL | Granzyme A secretion, CD8 T cells, at 0.0001 µM: 19700 pg/mL | Granzyme A secretion, CD8 T cells, at 0.001 µM: 22300 pg/mL | Granzyme A secretion, CD8 T cells, at 0.01 µM: 22700 pg/mL | Granzyme A secretion, CD8 T cells, at 0.1 µM: 26000 pg/mL | Granzyme A secretion, CD8 T cells, at 1 µM: 30100 pg/mL | Granzyme A secretion, CD8 T cells, at 10 µM: 29300 pg/mL | Granzyme A secretion, CD8 T cells, at 100 µM: 24800 pg/mL | Granzyme B secretion, CD8 T cells, at 0 µM: 77700 pg/mL | Granzyme B secretion, CD8 T cells, at 0.0001 µM: 52600 pg/mL | Granzyme B secretion, CD8 T cells, at 0.001 µM: 45500 pg/mL | Granzyme B secretion, CD8 T cells, at 0.01 µM: 47300 pg/mL | Granzyme B secretion, CD8 T cells, at 0.1 µM: 62200 pg/mL | Granzyme B secretion, CD8 T cells, at 1 µM: 80500 pg/mL | Granzyme B secretion, CD8 T cells, at 10 µM: 83500 pg/mL | Granzyme B secretion, CD8 T cells, at 100 µM: 78100 pg/mL | IFNγ secretion, CD8 T cells, at 0 µM: 122000 pg/mL | IFNγ secretion, CD8 T cells, at 0.0001 µM: 95500 pg/mL | IFNγ secretion, CD8 T cells, at 0.001 µM: 108000 pg/mL | IFNγ secretion, CD8 T cells, at 0.01 µM: 102000 pg/mL | IFNγ secretion, CD8 T cells, at 0.1 µM: 122000 pg/mL | IFNγ secretion, CD8 T cells, at 1 µM: 142000 pg/mL | IFNγ secretion, CD8 T cells, at 10 µM: 143000 pg/mL | IFNγ secretion, CD8 T cells, at 100 µM: 120000 pg/mL | IL-1β secretion, LPS treated monocytes, at 0 µM: 6240 pg/mL | IL-1β secretion, LPS treated monocytes, at 0 µM (LPS only): 6880 pg/mL | IL-1β secretion, LPS treated monocytes, at 0.0001 µM: 5950 pg/mL | IL-1β secretion, LPS treated monocytes, at 0.001 µM: 6200 pg/mL | IL-1β secretion, LPS treated monocytes, at 0.01 µM: 4960 pg/mL | IL-1β secretion, LPS treated monocytes, at 0.1 µM: 5590 pg/mL | IL-1β secretion, LPS treated monocytes, at 1 µM: 5670 pg/mL | IL-1β secretion, LPS treated monocytes, at 10 µM: 6020 pg/mL | IL-1β secretion, LPS treated monocytes, at 100 µM: 6840 pg/mL | IL-9 secretion, CD8 T cells, at 0 µM: 1350 pg/mL | IL-9 secretion, CD8 T cells, at 0.0001 µM: 988 pg/mL | IL-9 secretion, CD8 T cells, at 0.001 µM: 1050 pg/mL | IL-9 secretion, CD8 T cells, at 0.01 µM: 1010 pg/mL | IL-9 secretion, CD8 T cells, at 0.1 µM: 1300 pg/mL | IL-9 secretion, CD8 T cells, at 1 µM: 1380 pg/mL | IL-9 secretion, CD8 T cells, at 10 µM: 1880 pg/mL | IL-9 secretion, CD8 T cells, at 100 µM: 1700 pg/mL
B1: hIL10Ra_VHH14 - hIL2Rg_VHH19, linker GGGSGGGS, tag his (bispecific antibody, not shown: small tags and cut ends)
chain: QVQLQESGGGSVQAGGSLRLSCGASGYTYSSYCMGWFRQVPGKEREGVAVIDSDGSTSYADSVKGRFTISKDNGKNTLYLQMNSLKPEDTAMYYCAADLGHYRPPCGVLYLGMDYWGKGTQVTVSSGGGSGGGSQVQLQESGGGSVQAGGSLRLSCTASGFTFDDREMNWYRQAPGNECELVSTISSDGSTYYADSVKGRFTISQDNAKNTVYLQMDSVKPEDTAVYYCAADFMIAIQAPGAGCWGQGTQVTVSS

Granzyme A secretion, CD8 T cells, at 0 µM: 25200 pg/mL | Granzyme A secretion, CD8 T cells, at 0.0001 µM: 20800 pg/mL | Granzyme A secretion, CD8 T cells, at 0.001 µM: 23000 pg/mL | Granzyme A secretion, CD8 T cells, at 0.01 µM: 25300 pg/mL | Granzyme A secretion, CD8 T cells, at 0.1 µM: 27100 pg/mL | Granzyme A secretion, CD8 T cells, at 1 µM: 28700 pg/mL | Granzyme A secretion, CD8 T cells, at 10 µM: 29400 pg/mL | Granzyme A secretion, CD8 T cells, at 100 µM: 25600 pg/mL | Granzyme B secretion, CD8 T cells, at 0 µM: 77700 pg/mL | Granzyme B secretion, CD8 T cells, at 0.0001 µM: 54500 pg/mL | Granzyme B secretion, CD8 T cells, at 0.001 µM: 50900 pg/mL | Granzyme B secretion, CD8 T cells, at 0.01 µM: 54100 pg/mL | Granzyme B secretion, CD8 T cells, at 0.1 µM: 62300 pg/mL | Granzyme B secretion, CD8 T cells, at 1 µM: 77600 pg/mL | Granzyme B secretion, CD8 T cells, at 10 µM: 90000 pg/mL | Granzyme B secretion, CD8 T cells, at 100 µM: 77900 pg/mL | IFNγ secretion, CD8 T cells, at 0 µM: 122000 pg/mL | IFNγ secretion, CD8 T cells, at 0.0001 µM: 94700 pg/mL | IFNγ secretion, CD8 T cells, at 0.001 µM: 110000 pg/mL | IFNγ secretion, CD8 T cells, at 0.01 µM: 117000 pg/mL | IFNγ secretion, CD8 T cells, at 0.1 µM: 122000 pg/mL | IFNγ secretion, CD8 T cells, at 1 µM: 144000 pg/mL | IFNγ secretion, CD8 T cells, at 10 µM: 149000 pg/mL | IFNγ secretion, CD8 T cells, at 100 µM: 127000 pg/mL | IL-1β secretion, LPS treated monocytes, at 0 µM: 6240 pg/mL | IL-1β secretion, LPS treated monocytes, at 0 µM (LPS only): 6880 pg/mL | IL-1β secretion, LPS treated monocytes, at 0.0001 µM: 6290 pg/mL | IL-1β secretion, LPS treated monocytes, at 0.001 µM: 5850 pg/mL | IL-1β secretion, LPS treated monocytes, at 0.01 µM: 6100 pg/mL | IL-1β secretion, LPS treated monocytes, at 0.1 µM: 4960 pg/mL | IL-1β secretion, LPS treated monocytes, at 1 µM: 5780 pg/mL | IL-1β secretion, LPS treated monocytes, at 10 µM: 6420 pg/mL | IL-1β secretion, LPS treated monocytes, at 100 µM: 7840 pg/mL | IL-9 secretion, CD8 T cells, at 0 µM: 1350 pg/mL | IL-9 secretion, CD8 T cells, at 0.0001 µM: 951 pg/mL | IL-9 secretion, CD8 T cells, at 0.001 µM: 1010 pg/mL | IL-9 secretion, CD8 T cells, at 0.01 µM: 1140 pg/mL | IL-9 secretion, CD8 T cells, at 0.1 µM: 1090 pg/mL | IL-9 secretion, CD8 T cells, at 1 µM: 1440 pg/mL | IL-9 secretion, CD8 T cells, at 10 µM: 1600 pg/mL | IL-9 secretion, CD8 T cells, at 100 µM: 1700 pg/mL
B2: hIL10Ra_VHH14 - hIL2Rg_VHH19, linker GGSGGS, tag his (bispecific antibody, not shown: small tags and cut ends)
chain: QVQLQESGGGSVQAGGSLRLSCGASGYTYSSYCMGWFRQVPGKEREGVAVIDSDGSTSYADSVKGRFTISKDNGKNTLYLQMNSLKPEDTAMYYCAADLGHYRPPCGVLYLGMDYWGKGTQVTVSSGGSGGSQVQLQESGGGSVQAGGSLRLSCTASGFTFDDREMNWYRQAPGNECELVSTISSDGSTYYADSVKGRFTISQDNAKNTVYLQMDSVKPEDTAVYYCAADFMIAIQAPGAGCWGQGTQVTVSS
